Source: the supplement of paper PMC11908140

B1: library; numbered along this chain (parent)
chain: MRKPRAAVGSGHRKQAASQEGRQKHAKNNSQAKPSACDGLARQPEEVVLQASVSSYHLFRDVAEVTAFRGSLLSWYDQEKRDLPWRRRAEDEMDLDRRAYAVWVSEVMLQQTQVATVINYYTGWMQKWPTLQDLASASLEEVNQLWAGLGYYSRGRRLQEGARKVVEELGGHMPRTAETLQQLLPGVGRYTAGAIASIAFGQATGVVDGNVARVLCRVRAIGADPSSTLVSQQLWGLAQQLVDPARPGDFNQAAMELGATVCTPQRPLCSQCPVESLCRARQRVEQEQLLASGSLSGSPDVEECAPNTGQCHLCLPPSEPWDQTLGVVNFPRKASRKPPREESSATCVLEQPGALGAQILLVQRPNSGLLAGLWEFPSVTWEPSEQLQRKALLQELQRWAGPLPATHLRHLGEVVHTFSHIKLTYQVYGLALEGQTPVTTVPPGARWLTQEEFHTAAVSTAMKKVFRVYQGQQPGTCMGSKRSQVSSPCSRKKPRMGQQVLDNFFRSHISTDAHSLNSAAQ

Variants of: B1
Test: 8OG:A repair function score (normalized; synonymous = 0, nonsense = -1) (normalized log-likelihood score); higher = more repair activity (WT-like)
Settings: with 8OG:A DNA repair reporter (GFP) in HEK-293 MUTYH KO cells
In short: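 Lentiviral MUTYH cDNA NNN codon-scan libraries in HEK-293 MUTYH knockout cells (10 pg/ml doxycycline) were co-transfected with an 8OG:A GFP repair reporter plus mCherry. At 72 h, viable mCherry+ cells were sorted into GFP+ (repair) and GFP− bins, three replicates per tile, then tile amplicons were sequenced. Per-tile Rosace fitness scores became a normalized repair function score anchored on synonymous and nonsense distributions. Synonymous medians were set to 0 and nonsense to -1; variants under 300 counts per million at the start were removed.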

Variant	8OG:A repair function score
MRKPRAAVGSGHRKQAASQEGRQKHAKNNSQAKPSACDGLARQPEEVVLQASVSSYHLFRDVAEVTAFRGSLLSWYDQEKRDLPWRRRAEDEMDLDRRAYAVWVSEVMLQQTQVATVINYYTGWMQKWPTLQDLASASLEEVNQLWAGLGYYSRGRRLQEGARKVVEELGGHMPRTAETLQQLLPGVGRYTAGAIASIAFGQATGVVDGNVARVLCRVRAIGADPSSTLVSQQLWGLAQQLVDPARPGDFNQAAMELGATVCTPQRPLCSQCPVESLCRARQRVEQEQLLASGSLSGSPDVEECAPNTGQCHLCLPPSEPWDQTLGVVNFPRKASRKPPREESSATCVLEQPGALGAQILLVQRPNSGLLAGLWEFPSVTWEPSEQLQRKALLQELQRWAGPLPATHLRHLGEVVHTFSHIELTYQVYGLALEGQTPVTTVPPGARWLTQEEFHTAAVSTAMKKVFRVYQGQQPGTCMGSKRSQVSSPCSRKKPRMGQQVLDNFFRSHISTDAHSLNSAAQ [K422E]	-0.492
MRKPRAAVGSGHRKQAASQEGRQKHAKNNSQAKPSACDGLARQPEEVVLQASVSSYHLFRDVAEVTAFRGSLLSWYDQEKRDLPWRRRAEDEMDLDRRAYAVWVSEVMLQQTQVATVINYYTGWMQKWPTLQDLASASLEEVNQLWAGLGYYSRGRRLQEGARKVVEELGGHMPRTAETLQQLLPGVGRYTAGAIASIAFGQATGVVDGNVARVLCRVRAIGADPSSTLVSQQLWGLAQQLVDPARPGDFNQAAMELGATVCTPQRPLCSQCPVESLCRARQRVEQEQLLASGSLSGSPDVEECAPNTGQCHLCLPPSEPWDQTLGVVNFPRKASRKPPREESSATCVLEQPGALGAQILLVQRPNSGLLAGLWEFPSVTWEPSEQLQRKALLQELQRWAGPLPATHLRHLGEVVHTFSHIKLTYHVYGLALEGQTPVTTVPPGARWLTQEEFHTAAVSTAMKKVFRVYQGQQPGTCMGSKRSQVSSPCSRKKPRMGQQVLDNFFRSHISTDAHSLNSAAQ [Q426H]	-0.0882
MRKPRAAVGSGHRKQAASQEGRQKHAKNNSQAKPSACDGLARQPEEVVLQASVSSYHLFRDVAEVTAFRGSLLSWYDQEKRDLPWRRRAEDEMDLDRRAYAVWVSEVMLQQTQVATVINYYTGWMQKWPTLQDLASASLEEVNQLWAGLGYYSRGRRLQEGARKVVEELGGHMPRTAETLQQLLPGVGRYTAGAIASIAFGQATGVVDGNVARVLCRVRAIGADPSSTLVSQQLWGLAQQLVDPARPGDFNQAAMELGATVCTPQGPLCSQCPVESLCRARQRVEQEQLLASGSLSGSPDVEECAPNTGQCHLCLPPSEPWDQTLGVVNFPRKASRKPPREESSATCVLEQPGALGAQILLVQRPNSGLLAGLWEFPSVTWEPSEQLQRKALLQELQRWAGPLPATHLRHLGEVVHTFSHIKLTYQVYGLALEGQTPVTTVPPGARWLTQEEFHTAAVSTAMKKVFRVYQGQQPGTCMGSKRSQVSSPCSRKKPRMGQQVLDNFFRSHISTDAHSLNSAAQ [R266G]	-0.111
MRKPRAAVGSGHRKQAASQEGRQKHAKNNSQAKPSACDGLARQPEEVVLQASVSSYHLFRDVAEVTAFRGSLLSWYDQEKRDLPWRRRAEDEMDLDRRAYAVWVSEVMLQQTQVATVINYYTGWMQKWPTLQDLASASLEEVNQLWAGLGYYSRGRRLQEGARKVVEELGGHMPRTAETLQQLLPGVGRYTAGAIASIAFGQATGVVDGNVARVLCRVRAIGADPSSTLVSQQLWGLAQQLVDPARPGDFNQAAMELGATVCTPQRPLCSQCPVESLCRARQRVEQEQLLASGSLSGSPDVEECAPNTGQCHLCLPPSEPWDQTLGVVNFPRKASRKPPREESSATCVLEQPGALGAQILLVQRLNSGLLAGLWEFPSVTWEPSEQLQRKALLQELQRWAGPLPATHLRHLGEVVHTFSHIKLTYQVYGLALEGQTPVTTVPPGARWLTQEEFHTAAVSTAMKKVFRVYQGQQPGTCMGSKRSQVSSPCSRKKPRMGQQVLDNFFRSHISTDAHSLNSAAQ [P365L]	-0.0397
MRKPRAAVGSGHRKQAASQEGRQKHAKNNSQAKPSACDGLARQPEEVVLQASVSSYHLFRDVAEVTAFRGSLLSWYDQEKRDLPWRRRAEDEMDLDRRAYAVWVSEVMLQQTQVATVINYYTGWMQKWPTLQDLASASLEEVNQLWAGLGYYSRGRRLQEGARKVVEELGGHMPRTAETLQQLLPGVGRYTAGAIASIAFGQATGVVDGNVARVLCRVRAIGADPSSTLVSQQLWGLAQQLVDPARPGDFNQAAMELGATVCTPQRPLCSQCPVESLCRARQRVEQEQLLASGSLSGSPDVEECAPNTGQCHLCLPPSEPWDQTLGVDNFPRKASRKPPREESSATCVLEQPGALGAQILLVQRPNSGLLAGLWEFPSVTWEPSEQLQRKALLQELQRWAGPLPATHLRHLGEVVHTFSHIKLTYQVYGLALEGQTPVTTVPPGARWLTQEEFHTAAVSTAMKKVFRVYQGQQPGTCMGSKRSQVSSPCSRKKPRMGQQVLDNFFRSHISTDAHSLNSAAQ [V328D]	-0.227
MRKPRAAVGSGHRKQAASQEGRQKHAKNNSQAKPSACDGLARQPEEVVLQASVSSYHLFRDVAEVTAFRGSLLSWYDQEKRDLPWRRRAEDEMDLDRRAYAVWVSEVMLQQTQVATVINYYTGWMQKWPTLQDLASASLEEVNQLWAGLGYYSRGRRLQAGARKVVEELGGHMPRTAETLQQLLPGVGRYTAGAIASIAFGQATGVVDGNVARVLCRVRAIGADPSSTLVSQQLWGLAQQLVDPARPGDFNQAAMELGATVCTPQRPLCSQCPVESLCRARQRVEQEQLLASGSLSGSPDVEECAPNTGQCHLCLPPSEPWDQTLGVVNFPRKASRKPPREESSATCVLEQPGALGAQILLVQRPNSGLLAGLWEFPSVTWEPSEQLQRKALLQELQRWAGPLPATHLRHLGEVVHTFSHIKLTYQVYGLALEGQTPVTTVPPGARWLTQEEFHTAAVSTAMKKVFRVYQGQQPGTCMGSKRSQVSSPCSRKKPRMGQQVLDNFFRSHISTDAHSLNSAAQ [E160A]	0.0427
